{"source": "paper PMC7480387", "key": {"[1]": {"tested_on": "T1, GST-SfbR2 (Streptomyces filipinensis DSM 40112), ORF:2e1db1fa", "T1 sequence": "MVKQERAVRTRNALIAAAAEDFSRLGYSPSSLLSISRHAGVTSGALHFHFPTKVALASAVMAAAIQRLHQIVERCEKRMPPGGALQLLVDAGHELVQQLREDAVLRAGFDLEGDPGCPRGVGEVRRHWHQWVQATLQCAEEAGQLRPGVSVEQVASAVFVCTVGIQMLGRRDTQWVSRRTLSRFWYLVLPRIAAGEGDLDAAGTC", "experiment": "EMSA", "settings": "EMSA: 100 mM HEPES pH 7.6, 10 mM KCl, 5 mM MgCl2, 1 mM DTT, 1% Tween 20, 7.8 mM glutathione, 40 ug/ml poly[d(I-C)], 5% glycerol, 30 C, 10 min; 0.005 ng/ul …"}, "[2]": {"tested_on": "T2, GST-SfbR (Streptomyces filipinensis DSM 40112), ORF:e6e403b8", "T2 sequence": "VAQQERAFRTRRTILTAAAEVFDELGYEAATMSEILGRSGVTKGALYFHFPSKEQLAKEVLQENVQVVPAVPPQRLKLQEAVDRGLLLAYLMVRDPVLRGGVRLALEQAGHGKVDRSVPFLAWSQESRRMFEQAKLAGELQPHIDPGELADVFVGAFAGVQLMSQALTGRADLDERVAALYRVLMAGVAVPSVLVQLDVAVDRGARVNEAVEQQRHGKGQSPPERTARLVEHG", "experiment": "EMSA", "settings": "EMSA: 100 mM HEPES pH 7.6, 10 mM KCl, 5 mM MgCl2, 1 mM DTT, 1% Tween 20, 7.8 mM glutathione, 40 ug/ml poly[d(I-C)], 5% glycerol, 30 C, 10 min; 0.005 ng/ul …"}}}
{"sequence": "GCGTGCTGCCCAGCCGTGCTGCAAAGCCGCCGAGTACTTCGATGTCCATCTCTCTCCCCCAGATCCGTACGCGCGGGGCCCGTCAGGCACGCGCGGGGTGTGGCGTAGCTCAGGGAACTCGGGACTTGCTTGACCACCAAATTAAACAGCATGGCCGGTTCTTTCTCCAGTGGAACCCGAGGATCCGTGCCGGCGCCGCCCGCGGCCCGCGCCGCGGGGCGCGGGTCCGCGGTCGGCGTCCTCGCAGGTCTGTCCGTGTGCCGGGGTGGTGTGC (double strand) [sfb7p]", "values": [{"measurement": "binding", "setting": "[1]", "value": "binds"}, {"measurement": "binding", "setting": "[2]", "value": "binds"}]}
